Test results published in IntAct's records for PubMed 10722738.

B1: Early protein (Human adenovirus A serotype 12 (HAdV-12)), P03259-2 (parent)
chain: MRTEMTPLVLSYQEADDILEHLVDNFFNEVPSDDDLYVPSLYELYDLDVESAGEDNNEQAVNEFFPESLILAASEGLFLPEPPVLSPVCEPIGGECMPQLHPEDMDLLCYEMGFPCSDSEDEQDENGMAHVSASAAAAAADREREEFQLDHPELPGHNCPVSDNEPEPNSTLDGDERPSPPKLGSAVPEGVIKPVPQRVTGRRRCAVESILDLIQEEEREQTVPVDLSVKRPRCN

Variants of: B1
Settings: with cbp_human CREBBP

Q: With D16A as the variant, how does the “effect of a mutation on the interaction” value read?
A: Its value is “disrupting interaction”.

Q: With L19S as the variant, how does the “effect of a mutation on the interaction” value read?
A: Its value is “decreasing interaction”.

Q: With I18P as the variant, how does the “effect of a mutation on the interaction” value read?
A: Its value is “decreasing interaction”.
